Target: mcm2_human MCM2 (UniProt P49736)

effect of a mutation on the interaction: decreasing interaction strength
Substance: Histone H3.1 (Homo sapiens) (from UniProt P68431) R64A;K65A

Source: IntAct's records for PubMed 26167883
